The results in this text go back to patent US11591580B2, “K85 mutation-containing plant EPSPS mutant, and encoding gene and application thereof” (GEVOTO LLC, priority 2017, dated 2023).

Residue numbers refer to the chain shown, from its start.

The test system of data set [1] is EPSPS defective E. coli (E. coli DH5α with EPSPS gene and C-P Lyase gene being knocked out, EDCE). The data set is described as follows: growth of E. coli transformed by genes encoding rice EPSPS (wild type and mutants) in culture media containing different glyphosate concentrations (Example 5, FIG. 1). The class given is cell-based. Particulars: for EPSPS enzyme activity: concluded from growth of EPSPS defective E. coli at 0 mM glyphosate; for growth of transformed E. coli: culture media containing 1 mM glyphosate. The source says:
E. coli transformed by the gene (SEQ ID NO: 3) encoding the rice EPSPS mutant I provided in Example 1 was taken as Experiment Group 1 (only containing a mutation K100(85)I).
E. coli transformed by the gene (with a nucleotide sequence represented by SEQ ID NO: 5, and an amino acid sequence of the encoded rice EPSPS mutant is represented by SEQ ID NO: 6) encoding the rice EPSPS mutant that contains only mutations G111(96)A and P116(101)S but no mutation K100(85)I was taken as Experiment Group 2.
E. coli transformed by the gene (SEQ ID NO: 7) encoding the rice EPSPS mutant II provided in Example 2 was taken as Experiment Group 3 (the encoded rice EPSPS mutant II contained three mutations: K100(85)I, G111(96)A and P116(101)S).
E. coli transformed by the gene (SEQ ID NO: 1, which encoded the wild-type rice EPSPS represented by SEQ ID NO: 2) encoding the wild-type rice EPSPS was taken as a control group.
The glyphosate resistance of the gene encoding the rice EPSPS mutant I and the rice EPSPS mutant I encoded thereby in E. coli, and the glyphosate resistance of the gene encoding the rice EPSPS mutant II and the rice EPSPS mutant II encoded thereby in E. coli were verified by detecting the growth situation of the transformed E. coli in culture media (culture media obtained by adding a certain concentration of antibiotics Spec (Spectinomycin), Gen (Gentamycin), Amp (Ampicillin) and glyphosate of different concentrations, with M9 as a basal culture medium) containing different glyphosate concentrations (0 mM, 1 mM, 10 mM, and 50 mM).
In the above, the E. coli used was double knockout E. coli, namely, EPSPS defective E. coli (E. coli DH5α with EPSPS gene and C-P Lyase gene being knocked out, named as EDCE, wherein for a preparation method thereof, reference can be made to a Chinese invention patent with the filing number CN2016103256926).
The detection method is a method commonly known in the art, and is briefly described as follows: synthesizing the gene encoding the rice EPSPS mutant by using a chemical synthesis method, introducing enzyme sites (Pac1 and Sbf1) at two ends thereof, connecting to an expression vector (for example, a pADV5 vector, the structure of which is shown in FIG. 4) that had undergone the same restriction enzyme digestion treatment under the action of ligase after restriction enzyme digestion, then transforming double knockout E. coli, picking positive colonies after verification, inoculating the positive colonies to a culture medium containing glyphosate for growth, and observing the growth situation.
Results are as shown in FIG. 1 (wherein R0 is a control group, R1 is Experiment Group 1, R2 is Experiment Group 2, and R3 is Experiment Group 3).

In data set [2] the test system is transgenic rice seedlings. The data set is described as follows: glyphosate resistance of the EPSPS mutant in transgenic rice plants sprayed with glyphosate (Example 8, Table 1). The class given is in vivo, rice (Nipponbare). The conditions noted are these: for glyphosate resistance of transformed rice seedlings (in words): glyphosate sprayed at the 1× dosage. From the text: A method for detecting the glyphosate resistance of the G1 soybean EPSPS mutant (SEQ ID NO: 20), G2 soybean EPSPS mutant (SEQ ID NO: 22) and G3 soybean EPSPS mutant (SEQ ID NO: 24) provided in Example 7, the R1 rice EPSPS mutant (SEQ ID NO: 4) provided in Example 5, and the Z1 maize EPSPS mutant (SEQ ID NO: 12) provided in Example 6 in the transgenic rice is as follows:
The plasmids (containing the EPSPS mutant gene) of the monoclonal resistant bacteria of pADV5-EPSPS in Examples 1-7 were extracted by a conventional method, followed by double enzyme digestion by Pac1 and BstEII, the small fragments were collected, and then the small fragments were ligated, using T4 DNA ligase, to the pGVP1 vectors that had undergone the same double enzyme digestion, to obtain a pGVP1-EPSPS vector having a structure as shown in FIG. 8.
In the present example, the glyphosate resistance of the EPSPS mutant in transgenic rice plants were verified. An experiment method is as follows:
The transgenic rice seedlings transplanted were uniformly arranged in a same experiment area (preventing leaves from overlapping). The areas occupied by the experiment groups and the control group were calculated, and according to the areas, glyphosate was sprayed at a 1× dosage of 1060 g/hectare (0.106 g/m^2). 2× dosage was 2120 g/hectare, 5× dosage was 5300 g/hectare, and 20× dosage was 21200 g/hectare.
Commercially available Roundup® 41% ammonium glyphosate was used. Roundup® ammonium glyphosate with corresponding volumes was taken according to the above sprayed concentrations, then diluted with 20 times of volume of water, and then uniformly sprayed on the plants in the experiment groups and the control group. After leaf surfaces were dry, the plants were moved into greenhouse or outdoor to cultivate.
After the glyphosate was sprayed at the 1× dosage, growth states of the plants in each group were observed and recorded on a 10th day, and glyphosate was sprayed to the survived plants at the 2× dosage. The growth states of the plants in each group were observed and recorded 10 days later, and glyphosate was sprayed to the survived plants at the 5× dosage. The growth states of the plants in each group were observed and recorded 10 days later, and glyphosate was sprayed to the survived plants at the 20× dosage. The growth states of the plants in each group were observed and recorded 10 days later, and results are shown in Table 1, wherein corresponding numbers of plants denoted by −, +, ++ and +++ are listed, and “%++&+++” is percentage of plant having medium and high glyphosate resistance to the total number of plants observed.

Setting [3] is: 1X dosage (1060 g/hectare glyphosate), recorded on 10th day.
Where [4] appears, read: 2X dosage (2120 g/hectare) sprayed to plants surviving 1X, recorded 10 days later.
[5] abbreviates: 5X dosage (5300 g/hectare) sprayed to plants surviving 2X, recorded 10 days later.
Setting [6] is: 20X dosage (21200 g/hectare) sprayed to plants surviving 5X, recorded 10 days later.

B1: R0: wild-type rice EPSPS represented by SEQ ID NO: 2; control group of Example 5 (protein, listed as Oryza sativa)
chain: MASNAAAAAAKAEEIVLQPIREISGAVQLPGSKSLSNRILLLSALSEGTTVVDNLLNSEDVHYMLEALKALGLSVEADKVAKRAVVVGCGGKFPVEKDAKEEVQLFLGNAGTAMRPLTAAVTAAGGNATYVLDGVPRMRERPIGDLVVGLKQLGADVDCFLGTECPPVRVKGIGGLPGGKVKLSGSISSQYLSALLMAAPLALGDVEIEIIDKLISIPYVEMTLRLMERFGVKAEHSDSWDRFYIKGGQKYKSPGNAYVEGDASSASYFLAGAAITGGTVTVQGCGTTSLQGDVKFAEVLEMMGAKVTWTDTSVTVTGPPREPYGKKHLKAVDVNMNKMPDVAMTLAVVALFADGPTAIRDVASWRVKETERMVAIRTELTKLGASVEEGPDYCIITPPEKLNITAIDTYDDHRMAMAFSLAACADVPVTIRDPGCTRKTFPNYFDVLSTFVRN
For the molecule B1, in data set [1], the EPSPS enzyme activity result was “normal EPSPS enzyme activity” and the “growth of transformed E. coli” value is reported as “grew slowly”. For the same molecule, in data set [2] (setting [3]), the “% ++&+++ (percentage of plant having medium and high glyphosate resistance to the total number of plants observed)” value is 0.0%; the “number of plants with resistance + (low glyphosate resistance)” value (shortened to “number … (low glyphosate resistance)”) came to 1; the “number of plants with resistance ++ (medium glyphosate resistance)” value (shortened to “number … (medium glyphosate resistance)”) amounted to 0; the “number of plants with resistance +++ (high glyphosate resistance)” value (shortened to “number of plants with resistance +++”) came out at 0. The “number of plants with resistance − (no glyphosate resistance)” value (from here on “number … (no glyphosate resistance)”) in data set [2] (setting [3]) is on record as 30. Moreover, in data set [2] (setting [4]), the “% ++&+++ (percentage of plant having medium and high glyphosate resistance to the total number of plants observed)” value is on record as 0.0%; the “number … (low glyphosate resistance)” value turned out to be 0; the “number … (medium glyphosate resistance)” value worked out at 0; the “number of plants with resistance +++” value turned out to be 0. Also, the “number … (no glyphosate resistance)” value in data set [2] (setting [4]) was found to be 31. Moreover, in data set [2] (setting [5]), the “% ++&+++ (percentage of plant having medium and high glyphosate resistance to the total number of plants observed)” value was 0.0%; the “number … (low glyphosate resistance)” value was 0; the “number … (medium glyphosate resistance)” value is reported as 0; the “number of plants with resistance +++” value came out at 0. Also, in data set [2] (setting [5]), the “number … (no glyphosate resistance)” value was found to be 31. In data set [2] (setting [6]), the “% ++&+++ (percentage of plant having medium and high glyphosate resistance to the total number of plants observed)” value came out at 0.0%; the “number … (low glyphosate resistance)” value was found to be 0; the “number … (medium glyphosate resistance)” value is listed as 0; the “number of plants with resistance +++” value turned out to be 0. For the same molecule, the “number … (no glyphosate resistance)” value in data set [2] (setting [6]) was 31. In data set [2], the “glyphosate resistance of transformed rice seedlings (in words)” value was “had no resistance, one was seriously damaged, and all the others died”.

B2: R1: rice EPSPS mutant I, SEQ ID NO: 4, containing one mutation K100(85)I (protein)
chain: B1 chain with K100I
modifications: Oryza sativa EPSPS mutant with mutation K100(85)I
In the case of B2, in data set [1], the EPSPS enzyme activity entry was “normal EPSPS enzyme activity” and the “growth of transformed E. coli” value is “obviously grew better than the control group (R0)”. For the same molecule, in data set [2] (setting [3]), the “% ++&+++ (percentage of plant having medium and high glyphosate resistance to the total number of plants observed)” value is 88.9%; the “number … (low glyphosate resistance)” value worked out at 0; the “number … (medium glyphosate resistance)” value amounted to 0; the “number of plants with resistance +++” value is recorded as 16. Besides, the “number … (no glyphosate resistance)” value in data set [2] (setting [3]) amounted to 2. In data set [2] (setting [4]), the “% ++&+++ (percentage of plant having medium and high glyphosate resistance to the total number of plants observed)” value is 27.8%; the “number … (low glyphosate resistance)” value was 5; the “number … (medium glyphosate resistance)” value is listed as 4; the “number of plants with resistance +++” value is given as 1. In addition, the “number … (no glyphosate resistance)” value in data set [2] (setting [4]) turned out to be 8. Besides, in data set [2] (setting [5]), the “% ++&+++ (percentage of plant having medium and high glyphosate resistance to the total number of plants observed)” value was 11.1%; the “number … (low glyphosate resistance)” value stood at 3; the “number … (medium glyphosate resistance)” value amounted to 2; the “number of plants with resistance +++” value stood at 0. Besides, the “number … (no glyphosate resistance)” value in data set [2] (setting [5]) is listed as 13. In data set [2] (setting [6]), the “% ++&+++ (percentage of plant having medium and high glyphosate resistance to the total number of plants observed)” value amounted to 0.0%; the “number … (low glyphosate resistance)” value was found to be 2; the “number … (medium glyphosate resistance)” value was determined as 0; the “number of plants with resistance +++” value was determined as 0. The “number … (no glyphosate resistance)” value in data set [2] (setting [6]) amounted to 16. In addition, the “glyphosate resistance of transformed rice seedlings (in words)” value in data set [2] is given as “obviously superior to that of the rice seedlings transformed by R0”.
